Here are results for two proteins from patent publication US20030124529.

The target of data set [1] is rIGFBP-5 (gift of D. Andress), P24593.
For data set [2], the target named is rIGFBP-3 (gift of D. Powell), P17936.
Data set [3] deals with C-terminally c-myc tagged rIGFBP-5 (human IGFBP-5 followed by a c-myc and His tag, expressed in 293T cells), P24593.
C-terminally c-myc tagged rIGFBP-5 (human IGFBP-5 followed by a c-myc and His tag, expressed in 293T cells), P24593, sequence (P24593 other isoform, or with tags, fused parts or gaps): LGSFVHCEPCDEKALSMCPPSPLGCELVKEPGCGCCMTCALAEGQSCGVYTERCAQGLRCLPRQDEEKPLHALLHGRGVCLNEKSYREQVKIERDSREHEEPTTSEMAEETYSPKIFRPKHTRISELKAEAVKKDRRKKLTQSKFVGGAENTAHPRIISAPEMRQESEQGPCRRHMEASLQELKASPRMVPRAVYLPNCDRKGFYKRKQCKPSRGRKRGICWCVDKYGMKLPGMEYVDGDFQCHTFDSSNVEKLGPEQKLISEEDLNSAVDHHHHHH

rIGFBP-3 (gift of D. Powell), P17936, sequence (P17936 28-291): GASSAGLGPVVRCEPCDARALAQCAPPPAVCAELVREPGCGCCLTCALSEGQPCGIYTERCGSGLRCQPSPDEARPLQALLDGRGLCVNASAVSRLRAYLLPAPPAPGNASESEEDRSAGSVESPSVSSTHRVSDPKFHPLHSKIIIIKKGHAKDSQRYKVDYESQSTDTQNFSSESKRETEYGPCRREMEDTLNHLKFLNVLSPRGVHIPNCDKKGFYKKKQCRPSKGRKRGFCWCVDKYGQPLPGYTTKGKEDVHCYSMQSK
rIGFBP-5 (gift of D. Andress), P24593, sequence (P24593 21-272): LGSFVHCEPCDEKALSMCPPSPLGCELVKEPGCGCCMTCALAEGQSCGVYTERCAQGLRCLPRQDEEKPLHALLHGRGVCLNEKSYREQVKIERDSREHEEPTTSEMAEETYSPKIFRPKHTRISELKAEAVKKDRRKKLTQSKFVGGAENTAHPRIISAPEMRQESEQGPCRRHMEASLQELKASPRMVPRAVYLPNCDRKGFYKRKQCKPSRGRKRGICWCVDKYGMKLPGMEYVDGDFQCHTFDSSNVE

B1: recombinant wild-type PAPP-A2 (pregnancy-associated plasma protein-A2), in medium of 293T cells transfected with pPA2 (protein)
chain: SPPEESNQNGGEGSYREAETFNSQVGLPILYFSGRRERLLLRPEVLAEIPREAFTVEAWVKPEGGQNNPAIIAGVFDNCSHTVSDKGWALGIRSGKDKGKRDARFFFSLCTDRVKKATILISHSRYQPGTWTHVAATYDGRHMALYVDGTQVASSLDQSGPLNSPFMASCRSLLLGGDSSEDGHYFRGHLGTLVFWSTALPQSHFQHSSQHSSGEEEATDLVLTASFEPVNTEWVPFRDEKYPRLEVLQGFEPEPEILSPLQPPLCGQTVCDNVELISQYNGYWPLRGEKVIRYQVVNICDDEGLNPIVSEEQIRLQHEALNEAFSRYNISWQLSVHQVHNSTLRHRVVLVNCEPSKIGNDHCDPECEHPLTGYDGGDCRLQGRCYSWNRRDGLCHVECNNMLNDFDDGDCCDPQVADVRKTCFDPDSPKRAYMSVKELKEALQLNSTHFLNIYFASSVREDLAGAATWPWDKDAVTHLGGIVLSPAYYGMPGHTDTMIHEVGHVLGLYHVFKGVSERESCNDPCKETVPSMETGDLCADTAPTPKSELCREPEPTSDTCGFTRFPGAPFTNYMSYTDDNCTDNFTPNQVARMHCYLDLVYQQWTESRKPTPIPIPPMVIGQTNKSLTIHWLPPISGVVYDRASGSLCGACTEDGTFRQYVHTASSRRVCDSSGYWTPEEAVGPPDVDQPCEPSLQAWSPEVHLYHMNMTVPCPTEGCSLELLFQHPVQADTLTLWVTSFFMESSQVLFDTEILLENKESVHLGPLDTFCDIPLTIKLHVDGKVSGVKVYTFDERIEIDAALLTSQPHSPLCSGCRPVRYQVLRDPPFASGLPVVVTHSHRKFTDVEVTPGQMYQYQVLAEAGGELGEASPPLNHIHGAPYCGDGKVSERLGEECDDGDLVSGDGCSKVCELEEGFNCVGEPSLCYMYEGDGICEPFERKTSIVDCGIYTPKGYLDQWATRAYSSHEDKKKCPVSLVTGEPHSLICTSYHPDLPNHRPLTGWFPCVASENETQDDRSEQPEGSLKKEDEVWLKVCFNRPGEARAIFIFLTTDGLVPGEHQQPTVTLYLTDVRGSNHSLGTYGLSCQHNPLIINVTHHQNVLFHHTTSVLLNFSSPRVGISAVALRTSSRIGLSAPSNCISEDEGQNHQGQSCIHRPCGKQDSCPSLLLDHADVVNCTSIGPGLMKCAITCQRGFALQASSGQYIRPMQKEILLTCSSGHWDQNVSCLPVDCGVPDPSLVNYANFSCSEGTKFLKRCSISCVPPAKLQGLSPWLTCLEDGLWSLPEVYCKLECDAPPIILNANLLLPHCLQDNHDVGTICKYECKPGYYVAESAEGKVRNKLLKIQCLEGGIWEQGSCIPVVCEPPPPVFEGMYECTNGFSLDSQCVLNCNQEREKLPILCTKEGLWTQEFKLCENLQGECPPPPSELNSVEYKCEQGYGIGAVCSPLCVIPPSDPVMLPENITADTLEHWMEPVKVQSIVCTGRRQWHPDPVLVHCIQSCEPFQADGWCDTINNRAYCHYDGGDCCSSTLSSKKVIPFAADCDLDECTCRDPKAEENQ
For B1, the “proteolytic cleavage, ligand blotting with radiolabeled IGF-II” value in data set [1] is reported as “Of the six binding proteins, IGFBP-5 showed complete cleavage”; in data set [2], “IGFBP-3 was partially degraded”. In addition, in data set [3], the “proteolytic activity, Western blotting using anti-c-myc” value is recorded as “In the absence of inhibitors, wild-type PAPP-A2 degraded all rIGFBP-5 (lane 3)”.

B2: purified PAPP-A2 (protein)
chain: B1 chain
In the case of B2, the “proteolytic cleavage, SDS-PAGE and N-terminal sequence analysis” value in data set [3] was “PAPP-A2 cleaves IGFBP-5 at one site, between Ser-143 and Lys-144”.
